Patent publication US20260062487A1 (GRITSTONE BIO, published 2026)

Assays:
[1] = target: T1, biotinylated refolded G2-pHLA (A*01:01/b2m/…) (human, biotinylated at the C-terminal AviTag); test: BLI (ForteBio Octet HTX), biotinylated G2-pHLA captured on streptavidin SAX biosensor, antibody in solution, 1:2 Fit
T1 construct: Soluble complex caught on streptavidin sensors or MSD plates; also called G2-peptide A*01:01/b2m complex; WT

[2] = target: T1, biotinylated refolded G2-pHLA …; test: BLI (ForteBio Octet HTX), biotinylated G2-pHLA captured on streptavidin SAX biosensor, antibody in solution, 1:1 Fit
Text: The biosensors were then dipped in assay buffer for a baseline. […] The biosensors were finally dipped into wells containing assay buffer to measure the dissociation rate for another 50 seconds. Referencing was completed by having a biosensor with no immobilized ligand dipped into analyte. Kinetic data was processed with Octet™ software using a 1:1 kinetic model with errors within 10%, X² below 3, and R² above 0.9.

B1: Format 4-G2(1H11) hOKT3a with shortened 10 amino acid L1 and L2 linkers (bispecific antibody, human IgG1, kappa, N297Q)
chain: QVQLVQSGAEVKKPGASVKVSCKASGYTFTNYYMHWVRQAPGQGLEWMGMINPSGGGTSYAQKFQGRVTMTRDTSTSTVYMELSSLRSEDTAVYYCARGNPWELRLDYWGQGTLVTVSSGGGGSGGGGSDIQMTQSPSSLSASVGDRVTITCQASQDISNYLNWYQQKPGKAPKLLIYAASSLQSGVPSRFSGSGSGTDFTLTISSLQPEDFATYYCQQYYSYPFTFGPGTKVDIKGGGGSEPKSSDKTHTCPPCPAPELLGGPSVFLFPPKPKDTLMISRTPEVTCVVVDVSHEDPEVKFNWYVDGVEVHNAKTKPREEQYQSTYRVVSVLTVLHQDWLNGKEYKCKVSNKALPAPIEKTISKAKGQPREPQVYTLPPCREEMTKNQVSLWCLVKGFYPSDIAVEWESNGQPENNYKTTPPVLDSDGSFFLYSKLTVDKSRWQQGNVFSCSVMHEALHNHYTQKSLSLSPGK
heavy: QVQLVQSGAEVKKPGASVKVSCKASGYTFTNYYMHWVRQAPGQGLEWMGMINPSGGGTSYAQKFQGRVTMTRDTSTSTVYMELSSLRSEDTAVYYCARGNPWELRLDYWGQGTLVTVSSGGGGSGGGGSDIQMTQSPSSLSASVGDRVTITCQASQDISNYLNWYQQKPGKAPKLLIYAASSLQSGVPSRFSGSGSGTDFTLTISSLQPEDFATYYCQQYYSYPFTFGPGTKVDIKGGGGSGGGGSQVQLVQSGAEVKKPGASVKVSCKASGYTFTRYTMHWVRQAPGQGLEWMGYINPSRGYTNYNQKFKDRVTLTTDKSSSTAYMELSSLRSEDTAVYYCARYYDDHYSLDYWGQGTLVTVSSASTKGPSVFPLAPSSKSTSGGTAALGCLVKDYFPEPVTVSWNSGALTSGVHTFPAVLQSSGLYSLSSVVTVPSSSLGTQTYICNVNHKPSNTKVDKRVEPKSCDKTHTCPPCPAPELLGGPSVFLFPPKPKDTLMISRTPEVTCVVVDVSHEDPEVKFNWYVDGVEVHNAKTKPREEQYQSTYRVVSVLTVLHQDWLNGKEYKCKVSNKALPAPIEKTISKAKGQPREPQVCTLPPSREEMTKNQVSLSCAVKGFYPSDIAVEWESNGQPENNYKTTPPVLDSDGSFFLVSKLTVDKSRWQQGNVFSCSVMHEALHNRFTQKSLSLSPGK
light: DIQMTQSPSSLSASVGDRVTITCSASSSVSYMNWYQQKPGKAPKRLIYDTSKLASGVPSRFSGSGSGTDFTLTISSLQPEDFATYYCQQWSSNPFTFGQGTKLEIKRTVAAPSVFIFPPSDEQLKSGTASVVCLLNNFYPREAKVQWKVDNALQSGNSQESVTEQDSKDSTYSLSSTLTLSKADYEKHKVYACEVTHQGLSSPVTKSFNRGEC
notes: also called 4-G2(1H11)-10AAL hOKT3a; G2(1H11)_10AAL
[1]
  Kd: 301 nM
  koff: 0.0746 s⁻¹
  kon: 248000 M⁻¹ s⁻¹
[2]
  Kd: 6.35 nM
  koff: 0.00608 s⁻¹
  kon: 958000 M⁻¹ s⁻¹
